Data reported in patent US12617827B2, “Self-assembling peptide” (NATIONAL UNIVERSITY CORPORATION TOKYO MEDICAL AND DENTAL …, priority 2020, dated 2026).
Read-outs that look alike come from different tables or passages of the source.

Assays:
[1] = Fluidity test (gel formation ability) of peptide samples; format: physicochemical; conditions: 1.0% by weight in D-MEM (44 mM NaHCO3, pH 7.4), 37°C, CO2 5%, 48 hours
Description: A peptide powder after freeze-drying at 2.5 mg and 250 μL of D-MEM (containing 1×penicillin, 4.0 mM HEPES, 44 mM NaHCO3; pH 7.4) were added to a 1-mL microtube (glass container having an inner diameter of 5 mm and a height of 5 cm; Maruemu Corporation, Model No. 1), and ultrasound was irradiated in a water bath type ultrasonic apparatus (AS12GTU, 35 kHz, 60 W), to thereby disperse the peptide at a concentration of 1.0% by weight. Thereafter, the microtube was left to stand in a CO2 incubator (37° C., CO2 concentration 5%) for 48 hours in a state standing vertically with the bottom surface thereof facing downward. Penicillin (Life Technologies Corporation, Model No. 15140148) was used as an antibacterial agent at 100 U/mL for the purpose of prevention of mold generation, and a CO2 incubator was used for performing gelling in a condition similar to an in vivo condition.
In order to test whether the peptide sample lost fluidity and gelled, the sample was sealed in a CO2 incubator (37° C., CO2 concentration 5%) and taken out of the incubator, the microtube was rapidly flipped vertically, and a photograph of the peptide sample was taken and recorded. In a case where a portion or all of the peptide sample remained on the bottom surface side of the microtube, the peptide sample was determined to have lost fluidity and gelled. On the other hand, in a case where all of the peptide sample dropped to the cap side of the microtube, the peptide sample was determined not to have gelled.
Additional five types of peptides: […] (SEQ ID NO: 41), […] (SEQ ID NO: 42), […] (SEQ ID NO: 43), […] (SEQ ID NO: 44), and […] (SEQ ID NO: 45) were synthesized according to the same methods as in (1) to (3) of Example 1, and were subjected to gelling and fluidity test.

[2] = system: mouse fetus-derived 3T3 cells (NIH3T3 cells); test: Evaluation of cell adhesiveness on peptide-coated chamber slide; format: cell-based; conditions: 30 minutes on peptide-coated slide, compared with (RADA)4 peptide control
Description: A peptide sample having a concentration of 1.0% by weight was prepared by the same method as in Example 1. The peptide sample at 50 μL was dropped on a chamber slide (Merck Millipore, Millicell EZ 8-well glass) and dried under reduced pressure using a centrifugal concentrator (TAITEC CORPORATION, VC-96W), to thereby produce a chamber slide coated with the peptide. After 1.8×10^5 of mouse fetus-derived 3T3 cells (NIH3T3 cells) were suspended in 250 μL of a DMEM medium (containing 44 mM NaHCO3, Gibco, 11995-065) containing 10% serum and seeded onto the chamber slide coated with the peptide, incubation was performed in a CO2 incubator (37° C., CO2 concentration 5%) for 30 minutes. The chamber slide was washed with PBS, and cells not adhering thereto were removed. The adhering cells remaining after the washing were immobilized with 4% PFA, and then subjected to DAPI staining. The number of adhering cells was measured according to stereology as a strict quantitative determination technique which eliminates sampling biases. Specifically, nine frames of 100 μm×100 μm were created in a region of 300 μm×300 μm, and the number of cells in each of the frames was counted. The resulting number of cells was converted into the number of cells in a region of 1 mm×1 mm. In the present Example, a (RADA)4 peptide (SEQ ID NO: 19), which is known to form a cell-adhesive peptide gel, was used as a control.

[3] = Circular dichroism spectrum of peptide gels; format: physicochemical; conditions: 1.0% by weight peptide gel
Source text: The “circular dichroism” refers to a phenomenon in which a difference in absorbance occurs between left-handed circularly polarized light and right-handed circularly polarized light when a protein absorbs a circularly polarized light.
Among the peptide gels having a concentration of 1.0% by weight prepared in Example 1, three types of peptides as examples: […] peptide (SEQ ID NO: 4), […] peptide (SEQ ID NO: 2), and […] peptide (SEQ ID NO: 5) were subjected to measurement of circular dichroism spectra at 20° C., 40° C., 60° C., and 80° C. and circular dichroism spectra when re-cooled from 80° C. to 20° C.
The circular dichroism spectrum was measured with a JASCO J-1100 CD Spectrometer by using an assembly cell (GL Sciences, AB20-UV-0.1, cell length 0.1 mm). The measurement range was from 190 to 400 nm, the data-obtaining interval was 0.2 nm, the scanning speed was 200 nm/min, and the specimen concentration was 1.0% by weight. When the circular dichroism spectrum was measured, the temperature was controlled with JASCO temperature regulation unit and a water-cooled Peltier cell holder PTC-514.

[4] = Rheological property of the peptide gel (rheometer, storage elastic modulus G′ and loss elastic modulus G″); format: physicochemical; conditions: peptide concentration 1.0% by weight
Description: Among gels having a concentration of 1.0% by weight prepared in Example 1, gels formed by six types of peptide samples as examples: […] peptide (SEQ ID NO: 1), […] peptide (SEQ ID NO: 2), […] peptide (SEQ ID NO: 4), […] peptide (SEQ ID NO: 5), […] peptide (SEQ ID NO: 6), and […] peptide (SEQ ID NO: 8) were subjected to measurement of the rheological property thereof.
The rheological property was measured for 250 μL of a sample with a rheometer (Malvern Panalytical, Kinexus lab+). Specifically, the sample was sandwiched at a gap of 0.2 mm between plates, and subjected to measurement at 20° C.
The storage elastic modulus G′ and the loss elastic modulus G″ of a gel formed by each peptide are obtained by measurement of the rheological property. The storage elastic modulus G′ represents a component stored in an object, of the energy generated by an external force to the object and a strain, and the loss elastic modulus G″ represents a component externally diffused. In a case where a measurement specimen is a gel, the storage elastic modulus G′ generally exceeds the loss elastic modulus G″.

[5] = molecular target: RADA16 peptide, as RADA16 peptide gel; test: incorporation into the peptide gel; unincorporated fraction in PBS washes measured by sandwich ELISA
[6] = cited from earlier work

| Substance | gelling (loss of fluidity after vertical flipping of the microtube) [1] | further results |
| --- | --- | --- |
| RIRADMRGDIR | gelled | – |
| RVRVDVRVDVR | did not gel | – |
| RVRVDVDVRVR | did not gel | – |
| RIDARMRADMR | gelled | – |
| RVDVRVRVDVR | did not gel | – |
| RVDVRVDVRVR | did not gel | – |
| RIRADIRADMR | gelled | – |
| RVRVRVDVDVR | did not gel | – |
| RIDARMDARIR | gelled | cell adhesiveness (number of adhering cells) [2]: comparable with or more than a (RADA)4 peptide; circular dichroism signal (β-sheet structure) [3]: negative cotton effect around 220 nm; G' (Pa) ([4]; DMEM (pH 7.4), 20°C): 58,300 Pa |
| RIRADIRGDIR | gelled | – |
| GFP-RADA16 fusion peptide (from UniProt P42212 1-238) | – | incorporation rate [5]: < 70% |
| RIRGDIRADIR | gelled | – |
| RIRADMDARIR | gelled | – |
| RVDVDVRVRVR | did not gel | – |
| RIRADMRADIR | gelled | cell adhesiveness (number of adhering cells) [2]: comparable with or more than a (RADA)4 peptide; circular dichroism signal (β-sheet structure) [3]: negative cotton effect around 220 nm; G' (Pa) ([4]; DMEM (pH 7.4), 20°C): 4,830 Pa |
| RIRGDMRADIR | gelled | – |
| RADARADARADARADA [(RADA)4, reference compound] | – | G' (Pa) ([6]; pH 3-4, peptide concentration 1.0% by weight): 30^*3 Pa; G' (Pa) ([4]; 2.2% TFA aq.): 265 Pa |
| RMDADMRARIR | gelled | – |
| RMDARIDARIR | gelled | – |
| RIDARMRADIR | gelled | cell adhesiveness (number of adhering cells) [2]: comparable with or more than a (RADA)4 peptide; circular dichroism signal (β-sheet structure) [3]: negative cotton effect around 220 nm; G' (Pa) ([4]; DMEM (pH 7.4), 20°C): 21,300 Pa |
| RLDLRLALRLDLR [SPG178, known peptide gelling agent] | – | G' (Pa) ([6]; pH 7, peptide concentration 1.0% by weight): 70^*3 Pa; G' (Pa) ([6]; pH 7, peptide concentration 1.5% by weight): 300^*3 Pa |
| RIRGDIRGDIR | gelled | – |
| RIRGDMRGDIR | gelled | G' (Pa) ([4]; DMEM (pH 7.4), 20°C): 47,800 Pa |
| RIRARMDADIR | gelled | G' (Pa) ([4]; DMEM (pH 7.4), 20°C): 6,500 Pa |
| RIDADMRARIR | gelled | G' (Pa) ([4]; DMEM (pH 7.4), 20°C): 47,500 Pa |
